Drawing on publication PMC12631696, “Trp101-Mediated Cold Adaptation in Sphingomonas sp. Thioredoxin: Increased α4-Helix Rigidity with Preserved Overall Flexibility” (ACS Omega, 2025), this text covers Km and kcat for six substances.

The test system of one data set is O=C(O)c1cc(SSc2ccc([N+](=O)[O-])c(C(=O)O)c2)ccc1[N+](=O)[O-]. In words: purified protein. Conditions: Trx pre-reduced with 5 mM DTT, 0.4 μM, 50 mM MOPS pH 7.0, 1 mM EDTA, DTNB 10–150 μM, apparent optimal temperature (40 °C).
For orientation: Km means the concentration of substrate that gives half-maximal velocity. What is called kcat is the maximal rate divided by the concentration of active sites. Take “SpTrx (Sphingomonas sp. PAMC 26621; E47A)”: the Michaelis-Menten constant (Km) came to 39.0 ± 0.1 µM and the turnover number (kcat) was 23 ± 0.1 s⁻¹.
On the same counts, the results for “SpTrx (Sphingomonas sp. PAMC 26621; E43A/E47A)” are 44.0 ± 0.1 µM and 13.1 ± 0.2 s⁻¹.
On the same counts, the results for “SpTrx (Sphingomonas sp. PAMC 26621; W101F)” are 50.7 ± 0.6 µM and 14.6 ± 0.1 s⁻¹.
On the same counts, the results for “SpTrx (Sphingomonas sp. PAMC 26621; W101A)” are 59.9 ± 0.2 µM and 0.6 ± 0.1 s⁻¹.

Staying with this data set, now noted: Trx pre-reduced with 5 mM DTT, 0.4 μM, 50 mM MOPS pH 7.0, 1 mM EDTA, DTNB 10–150 μM, apparent optimal temperature (60 °C).
Consider “SpTrx (Sphingomonas sp. PAMC 26621; E43A)”, for which the Km stood at 38.3 ± 0.1 µM and the turnover number (kcat) was found to be 23.4 ± 0.1 s⁻¹.
For SpTrx (Sphingomonas sp. PAMC 26621), the Km worked out at 33.0 ± 0.1 µM and the catalytic constant (kcat) was found to be 26.1 ± 0.1 s⁻¹.
